From article doi:10.1101/521351 (bioRxiv, 2019) come the findings set out here.

The target in data set [1] is ICA512 RESP18HD (regulated endocrine-specific protein 18 homology domain of ICA512, residues 35-131) (human) (UniProt Q16849). Description: co-sedimentation.
Data set [2] concerns the molecule itself. Description: light scattering.

In the case of Human insulin (ligand), the stoichiometry N – broadly, a count of units in the complex or per binding partner – in data set [1] (scale: mole of insulin per mole of ICA512 RESP18HD) was found to be 0.4; in data set [1] (scale: moles of insulin per mole of ICA512 RESP18HD), 2.8.

B1: ICA512 RESP18HD (regulated endocrine-specific protein 18 homology domain of ICA512, residues 35-131) (domain or fragment, human, UniProt Q16849 35-131, looked up)
chain: VSAHGCLFDRRLCSHLEVCIQDGLFGQCQVGVGQARPLLQVTSPVLQRLQGVLRQLMSQGLSWHDDLTQYVISQEMERIPRLRPPEPRPRDRSGLAP
Turning to B1, the binding result in data set [2] was “binds”.
